Test results published in FireProtDB (doi:10.1021/bi00231a002).

Details: Rhodobacter capsulatus (strain ATCC BAA-309 / NBRC 16581 / SB1003); pH 7.5; 20 °C; GdnHCl; CD; Tris-HCl 20 mM; NaCl 40 mM; whole UniProt chain shown

B1: Cytochrome c2 wild type, P00094 (protein)
chain: MKISLTAATVAALVLAAPAFAGDAAKGEKEFNKCKTCHSIIAPDGTEIVKGAKTGPNLYGVVGRTAGTYPEFKYKDSIVALGASGFAWTEEDIATYVKDPGAFLKEKLDDKKAKTGMAFKLAKGGEDVAAYLASVVK
With B1 as the protein, how does the denaturant m value read?
Its denaturant m value is 1.65 kcal/mol/M.

What about the “denaturant midpoint (higher = more stable)” value of the same protein?
The value was 4.51 M.

And the unfolding free energy?
Its unfolding free energy is 31.2 kJ/mol.
